Measurements taken from US20110300138A1 (published 2011).

Tests used:
[1] = target: human thyroid stimulating hormone receptor (TSHR), full length (human) (UniProt P16473); assay: 125I-K1-70 Fab (competitor) binding to TSHR coated tubes; negative control MAb 0.001 µg/mL in assay buffer
[2] = target: TSHR (thyroid stimulating hormone receptor), full length human (human) (UniProt P16473); assay: negative control; competitor ^125I-K1-70 IgG, TSHR coated tubes; 1 µg/mL in HBD
[3] = target: TSHR (full length) coated on tubes (human) (UniProt P16473); assay: inhibition of 125I-K1-18 Fab (competitor) binding to TSHR coated tubes; negative control 0.1 µg/mL in assay buffer
[4] = target: TSH receptor (full length human TSHR) (human) (UniProt P16473); assay: competition ELISA: inhibition of M22 Fab-peroxidase (competitor) binding to TSHR coated wells; negative control at 0.1 µg/mL diluted in assay buffer
[5] = target: thyroid stimulating hormone receptor (TSHR), full length human TSHR (human) (UniProt P16473); assay: TSH-biotin competition ELISA, TSHR coated wells; negative control, 1 µg/mL in assay buffer
[6] = target: TSHR with Lys250 mutated to Ala (expressed in CHO cells) (human) (UniProt P16473); assay: cell-based or functional assay
[7] = target: TSHR with Phe130 mutated to Ala, expressed in CHO cells (human) (UniProt P16473); assay: cell-based or functional assay
[8] = target: TSHR with Thr257 mutated to Ala (human) (UniProt P16473); assay: cell-based or functional assay
[9] = target: TSHR with Glu251 mutated to Ala (human) (UniProt P16473); assay: cell-based or functional assay
[10] = target: TSHR with His105 mutated to Ala (expressed in CHO cells) (human) (UniProt P16473); assay: cell-based or functional assay
[11] = target: TSHR with Lys183 mutated to Asp expressed in CHO cells (human) (UniProt P16473); assay: cell-based or functional assay
[12] = target: TSHR with Lys209 mutated to Ala (expressed in CHO cells) (human) (UniProt P16473); assay: cell-based or functional assay
[13] = target: TSHR with Tyr206 mutated to Ala (expressed in CHO cells) (human) (UniProt P16473); assay: cell-based or functional assay
[14] = target: TSHR (thyroid stimulating hormone receptor), full length human (human) (UniProt P16473); assay: competitor ^125I-K1-70 IgG, TSHR coated tubes; 0.01 µg/mL in HBD
[15] = target: TSH receptor (full length human TSHR) (human) (UniProt P16473); assay: competition ELISA: inhibition of M22 Fab-peroxidase (competitor) binding to TSHR coated wells; test sample at 10 µg/mL diluted in HBD serum pool
[16] = target: human thyroid stimulating hormone receptor (TSHR), full length (human) (UniProt P16473); assay: 125I-K1-18 Fab competition, TSHR coated tubes; 0.1 µg/mL in HBD
[17] = target: thyroid stimulating hormone receptor (full length human TSHR) (human) (UniProt P16473); assay: ELISA: inhibition of M22 Fab-peroxidase (competitor) binding to TSHR coated wells; 0.01 µg/mL, diluted in assay buffer
[18] = target: TSH receptor (TSHR) coated on tubes (human) (UniProt P16473); assay: inhibition of 125I-K1-70 IgG binding to TSHR coated tubes; sample 1 µg/mL in HBD serum pool
[19] = target: human TSH receptor (full length) coated on ELISA plate wells (human) (UniProt P16473); assay: TSH-biotin binding inhibition ELISA, TSHR coated wells; 1 µg/mL in HBD serum pool
[20] = target: TSH receptor (TSHR), full length human, coated on tubes (human) (UniProt P16473); assay: inhibition of 125I-TSH binding to TSHR coated tubes; 0.001 µg/mL, diluted in assay buffer

5B3 IgG (antibody) was tested, and the Inhibition of binding (%) [1] was -1.8%, the Inhibition of binding (%) [2] was -1.5% and the Inhibition of binding (%) [3] was -3.6%. For the same molecule, the Inhibition of binding (%) [4] was 1.4% and the Inhibition of binding (%) [5] was -8.3%.

Molecule TSH (ligand) has a Cyclic AMP produced, TSH 0.01 ng/mL [6] of 8.29 pmol/mL, a Cyclic AMP produced, TSH 0.03 ng/mL [6] of 12.6 pmol/mL and a Cyclic AMP produced, TSH 0.1 ng/mL [6] of 28.8 pmol/mL. The Cyclic AMP produced, TSH 0.3 ng/mL [6] was 66.2 pmol/mL, the Cyclic AMP produced, TSH 1 ng/mL [6] was 87.9 pmol/mL and the Cyclic AMP produced; TSH 3 ng/mL [6] was 110 pmol/mL. It also gave a Mutated/Wild type (%) of cyclic AMP produced, TSH 0.01 ng/mL [6] of 207%, a Mutated/Wild type (%) of cyclic AMP produced, TSH 0.03 ng/mL [6] of 189% and a Mutated/Wild type (%) of cyclic AMP produced, TSH 0.1 ng/mL [6] of 147%. For the same molecule, the Mutated/Wild type (%) of cyclic AMP produced, TSH 0.3 ng/mL [6] was 147%, the Mutated/Wild type (%) of cyclic AMP produced, TSH 1 ng/mL [6] was 116% and the Mutated/wild type (%) of cyclic AMP produced; TSH 3 ng/mL [6] was 126%. It also gave a Cyclic AMP produced, TSH 0.01 ng/mL, mutated TSHR [7] of 3.05 pmol/mL, a Cyclic AMP produced, TSH 0.03 ng/mL, mutated TSHR [7] of 4.12 pmol/mL and a Cyclic AMP produced, TSH 0.1 ng/mL, mutated TSHR [7] of 9.61 pmol/mL. For the same molecule, the Cyclic AMP produced, TSH 0.3 ng/mL, mutated TSHR [7] was 35.6 pmol/mL, the Cyclic AMP produced, TSH 1 ng/mL, mutated TSHR [7] was 66.2 pmol/mL and the Cyclic AMP produced, TSH 3 ng/mL, mutated TSHR [7] was 80.4 pmol/mL. For the same molecule, the Mutated/Wild type (%), TSH 0.01 ng/mL [7] was 134%, the Mutated/Wild type (%), TSH 0.03 ng/mL [7] was 109% and the Mutated/Wild type (%), TSH 0.1 ng/mL [7] was 101%. For the same molecule, the Mutated/Wild type (%), TSH 0.3 ng/mL [7] was 124%, the Mutated/Wild type (%), TSH 1 ng/mL [7] was 86% and the Mutated/Wild type (%), TSH 3 ng/mL [7] was 86%. It also gave a Mutated/Wild type (%) of cyclic AMP produced, TSH 0.01 ng/mL [8] of 90%, a Mutated/Wild type (%) of cyclic AMP produced, TSH 0.03 ng/mL [8] of 93% and a Mutated/Wild type (%) of cyclic AMP produced, TSH 0.1 ng/mL [8] of 92%. For the same molecule, the Mutated/Wild type (%) of cyclic AMP produced, TSH 0.3 ng/mL [8] was 105%, the Mutated/Wild type (%) of cyclic AMP produced, TSH 1 ng/mL [8] was 94% and the Mutated/wild type (%) of cyclic AMP produced; TSH 3 ng/mL [8] was 86%. It also gave a Cyclic AMP produced (mean of duplicate), TSH 3 ng/mL [9] of 71.7 pmol/mL, a Mutated/Wild type (%) of cyclic AMP produced, TSH 0.01 ng/mL [9] of 243% and a Mutated/Wild type (%) of cyclic AMP produced, TSH 0.03 ng/mL [9] of 224%. For the same molecule, the Mutated/Wild type (%) of cyclic AMP produced, TSH 0.1 ng/mL [9] was 115%, the Mutated/Wild type (%) of cyclic AMP produced, TSH 0.3 ng/mL [9] was 67% and the Mutated/Wild type (%) of cyclic AMP produced, TSH 1 ng/mL [9] was 69%. It also gave a Mutated/wild type (%) of cyclic AMP produced; TSH 3 ng/mL [9] of 66%, a Cyclic AMP produced (pmol/mL), TSH 0.01 ng/mL [10] of 4.8 pmol/mL and a Cyclic AMP produced (pmol/mL), TSH 0.03 ng/mL [10] of 3.55 pmol/mL. For the same molecule, the Cyclic AMP produced (pmol/mL), TSH 0.1 ng/mL [10] was 4.82 pmol/mL, the Cyclic AMP produced (pmol/mL), TSH 0.3 ng/mL [10] was 11.9 pmol/mL and the Cyclic AMP produced (pmol/mL), TSH 1 ng/mL [10] was 34.6 pmol/mL. For the same molecule, the Cyclic AMP produced (pmol/mL), TSH 3 ng/mL [10] was 58.3 pmol/mL, the Mutated/Wild type (%), TSH 0.01 ng/mL [10] was 308% and the Mutated/Wild type (%), TSH 0.03 ng/mL [10] was 147%. For the same molecule, the Mutated/Wild type (%), TSH 0.1 ng/mL [10] was 118%, the Mutated/Wild type (%), TSH 0.3 ng/mL [10] was 104% and the Mutated/Wild type (%), TSH 1 ng/mL [10] was 76%. The Mutated/Wild type (%), TSH 3 ng/mL [10] was 75%, the Cyclic AMP produced (pmol/mL), mutated TSHR, TSH 0.01 ng/mL [11] was 4.08 pmol/mL and the Cyclic AMP produced (pmol/mL), mutated TSHR, TSH 0.03 ng/mL [11] was 7.18 pmol/mL. The Cyclic AMP produced (pmol/mL), mutated TSHR, TSH 0.1 ng/mL [11] was 19.1 pmol/mL, the Cyclic AMP produced (pmol/mL), mutated TSHR, TSH 0.3 ng/mL [11] was 51.7 pmol/mL and the Cyclic AMP produced (pmol/mL), mutated TSHR, TSH 1 ng/mL [11] was 93.3 pmol/mL. It also gave a Cyclic AMP produced (pmol/mL), mutated TSHR, TSH 3 ng/mL [11] of 106 pmol/mL, a Mutated/Wild type (%), TSH 0.01 ng/mL [11] of 165% and a Mutated/Wild type (%), TSH 0.03 ng/mL [11] of 155%. The Mutated/Wild type (%), TSH 0.1 ng/mL [11] was 109%, the Mutated/Wild type (%), TSH 0.3 ng/mL [11] was 128% and the Mutated/Wild type (%), TSH 1 ng/mL [11] was 101%. It also gave a Mutated/Wild type (%), TSH 3 ng/mL [11] of 102%, a Mutated/Wild type (%) of cyclic AMP produced, TSH 0.01 ng/mL [12] of 171% and a Mutated/Wild type (%) of cyclic AMP produced, TSH 0.03 ng/mL [12] of 128%. It also gave a Mutated/Wild type (%) of cyclic AMP produced, TSH 0.1 ng/mL [12] of 65%, a Mutated/Wild type (%) of cyclic AMP produced, TSH 0.3 ng/mL [12] of 64% and a Mutated/Wild type (%) of cyclic AMP produced, TSH 1 ng/mL [12] of 45%. It also gave a Mutated/Wild type (%) of cyclic AMP produced, TSH 0.01 ng/mL, Experiment 1 [13] of 83%, a Mutated/Wild type (%) of cyclic AMP produced, TSH 0.01 ng/mL, Experiment 2 [13] of 135% and a Mutated/Wild type (%) of cyclic AMP produced, TSH 0.03 ng/mL, Experiment 1 [13] of 124%. The Mutated/Wild type (%) of cyclic AMP produced, TSH 0.03 ng/mL, Experiment 2 [13] was 144%, the Mutated/Wild type (%) of cyclic AMP produced, TSH 0.1 ng/mL, Experiment 1 [13] was 93% and the Mutated/Wild type (%) of cyclic AMP produced, TSH 0.1 ng/mL, Experiment 2 [13] was 178%. For the same molecule, the Mutated/Wild type (%) of cyclic AMP produced, TSH 0.3 ng/mL, Experiment 1 [13] was 104%, the Mutated/Wild type (%) of cyclic AMP produced, TSH 0.3 ng/mL, Experiment 2 [13] was 110% and the Mutated/Wild type (%) of cyclic AMP produced, TSH 1 ng/mL, Experiment 1 [13] was 66%. The Mutated/Wild type (%) of cyclic AMP produced, TSH 1 ng/mL, Experiment 2 [13] was 93%, the Mutated/wild type (%) of cyclic AMP produced; TSH 3 ng/mL; Experiment 1 [13] was 62% and the Mutated/wild type (%) of cyclic AMP produced; TSH 3 ng/mL; Experiment 2 [13] was 97%.

9D33 IgG (antibody) showed an Inhibition of binding (%) [14] of 0.6% and an Inhibition of binding (%) [15] of 66.7%.

B1: 5C9 IgG (antibody, from another filing, V domains shown)
VH: EVQLVESGGGLIQPGGSLRLSCAASGFTVSSNYMSWVRQAPGKGLEWVSVTYSGGSTSYADSVKGRFTISRDNSKNTLYLQMNSLRAEDTAVYYCARGGRYCSSISCYARSGCDYWGQGTLVTVSS
VL: AIQMTQSPSSLSASVGDRVTITCRASQSISNYLNWYQQKPGKAPKLLIYAASSLQSGVPSRFSGSGSGTDFTLTISSLQPEDFATYYCQQSYSSPSTTFGQGTKLEIK
With B1 the Inhibition of binding (%) [16] was 6.3%, the Inhibition of binding (%) [17] was 0.6% and the Inhibition of binding (%) [18] was 15.4%. For the same molecule, the % inhibition of TSH-biotin binding [19] was 35.7% and the Inhibition of binding (%) [20] was -11.2%.
